{"source": "IntAct's records for PubMed 16368681", "parents": {"B1": {"name": "Protein disulfide-isomerase (Saccharomyces cerevisiae), P17967 (parent)", "chain": "MKFSAGAVLSWSSLLLASSVFAQQEAVAPEDSAVVKLATDSFNEYIQSHDLVLAEFFAPWCGHCKNMAPEYVKAAETLVEKNITLAQIDCTENQDLCMEHNIPGFPSLKIFKNSDVNNSIDYEGPRTAEAIVQFMIKQSQPAVAVVADLPAYLANETFVTPVIVQSGKIDADFNATFYSMANKHFNDYDFVSAENADDDFKLSIYLPSAMDEPVVYNGKKADIADADVFEKWLQVEALPYFGEIDGSVFAQYVESGLPLGYLFYNDEEELEEYKPLFTELAKKNRGLMNFVSIDARKFGRHAGNLNMKEQFPLFAIHDMTEDLKYGLPQLSEEAFDELSDKIVLESKAIESLVKDFLKGDASPIVKSQEIFENQDSSVFQLVGKNHDEIVNDPKKDVLVLYYAPWCGHCKRLAPTYQELADTYANATSDVLIAKLDHTENDVRGVVIEGYPTIVLYPGGKKSESVVYQGSRSLDSLFDFIKENGHFDVDGKALYEEAQEKAAEEADADAELADEEDAIHDEL", "partner": "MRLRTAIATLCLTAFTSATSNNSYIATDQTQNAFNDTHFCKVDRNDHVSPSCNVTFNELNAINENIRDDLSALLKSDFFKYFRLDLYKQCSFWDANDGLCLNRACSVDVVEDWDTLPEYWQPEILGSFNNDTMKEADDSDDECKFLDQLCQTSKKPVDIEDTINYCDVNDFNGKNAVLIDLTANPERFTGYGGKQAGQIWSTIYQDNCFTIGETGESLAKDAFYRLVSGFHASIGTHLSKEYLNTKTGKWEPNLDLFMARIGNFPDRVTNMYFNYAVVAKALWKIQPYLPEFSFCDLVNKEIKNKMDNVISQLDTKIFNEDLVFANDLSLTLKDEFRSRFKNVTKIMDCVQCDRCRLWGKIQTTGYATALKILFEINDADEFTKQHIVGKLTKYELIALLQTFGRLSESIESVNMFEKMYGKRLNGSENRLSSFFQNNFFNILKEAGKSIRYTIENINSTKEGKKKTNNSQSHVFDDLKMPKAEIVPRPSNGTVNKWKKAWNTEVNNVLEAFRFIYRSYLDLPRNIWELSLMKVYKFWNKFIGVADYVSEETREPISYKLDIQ"}, "B2": {"name": "Protein disulfide-isomerase (Saccharomyces cerevisiae), P17967 (parent)", "chain": "B1 chain"}}, "data": [{"variants_of": "B1", "conditions": "with ero1_yeast ERO1, Q03103", "values": [{"variant": "C61A;C64A", "effect of a mutation on the interaction": "decreasing interaction"}, {"variant": "C406A;C409A", "effect of a mutation on the interaction": "decreasing interaction"}]}, {"variants_of": "B2", "conditions": "with rnas1_bovin RNASE1, P61823", "values": [{"variant": "C61A;C64A", "effect of a mutation on the interaction": "decreasing interaction"}, {"variant": "C406A;C409A", "effect of a mutation on the interaction": "decreasing interaction"}]}]}
